T1: human IL-33 (R&D systems) (human, UniProt O95760 112-270)
T1 sequence (looked up): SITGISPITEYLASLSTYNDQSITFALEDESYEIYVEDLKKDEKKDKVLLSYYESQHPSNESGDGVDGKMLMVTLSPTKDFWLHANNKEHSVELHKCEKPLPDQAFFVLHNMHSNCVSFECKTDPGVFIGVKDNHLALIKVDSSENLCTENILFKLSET


Legend:
[1] = target: T2, human TSLP (R&D systems) (human, UniProt Q969D9 29-159); assay: BLI (Octet RED96), binder captured via anti-human Fab CH1, TSLP in solution
T2 construct: also called thymic stromal lymphopoietin
Description: (§1) Biosensors immobilized with irrelevant antibody (SM03, anti-human CD22 chimeric IgG1 antibody, SinoMab BioScience Limited, 20 μg/mL) were used as control reference.

[2] = target: T1, human IL-33 (R&D systems); assay: BLI (Octet RED96), binder captured via anti-human Fab CH1, IL33 in solution
Description: as §1

Binder	Kd [1] [nM]	koff [1] [s⁻¹]	kon [1] [M⁻¹ s⁻¹]	Kd [2] [nM]	koff [2] [s⁻¹]	kon [2] [M⁻¹ s⁻¹]
SM17-anti TSLP 1# bsBp (bispecific antibody, human IgG4 S228P, kappa, SM17 IgG with an anti-TSLP scFv fused to the C-terminus of each heavy chain; expressed in ExpiCHO-S cells) heavy: not shown light: DIQMTQSPSSLSASVGDRVTITCRASENINSNLAWYQQKPGKAPKLLLYDVTNLADGVPSRFSGSGSGTDYTLTISSLQPEDFATYYCQHFWGPPYTFGGGTKVEIKRTVAAPSVFIFPPSDEQLKSGTASVVCLLNNFYPREAKVQWKVDNALQSGNSQESVTEQDSKDSTYSLSSTLTLSKADYEKHKVYACEVTHQGLSSPVTKSFNRGEC	0.511	0.000241	472000			
SM17-anti TSLP 2# bsBp (bispecific antibody, human IgG4 S228P, kappa, SM17 IgG with an anti-TSLP scFv fused to the C-terminus of each heavy chain; also called SM17-anti-TSLP bsBp 2 #) heavy: not shown light: DIQMTQSPSSLSASVGDRVTITCRASENINSNLAWYQQKPGKAPKLLLYDVTNLADGVPSRFSGSGSGTDYTLTISSLQPEDFATYYCQHFWGPPYTFGGGTKVEIKRTVAAPSVFIFPPSDEQLKSGTASVVCLLNNFYPREAKVQWKVDNALQSGNSQESVTEQDSKDSTYSLSSTLTLSKADYEKHKVYACEVTHQGLSSPVTKSFNRGEC	< 0.001	< 1e-07	374000			
SM17-anti IL-33 1# bsBp (bispecific antibody, human IgG4 S228P, kappa, SM17 IgG with an anti-IL-33 scFv fused to the C-terminus of each heavy chain) heavy: not shown light: DIQMTQSPSSLSASVGDRVTITCRASENINSNLAWYQQKPGKAPKLLLYDVTNLADGVPSRFSGSGSGTDYTLTISSLQPEDFATYYCQHFWGPPYTFGGGTKVEIKRTVAAPSVFIFPPSDEQLKSGTASVVCLLNNFYPREAKVQWKVDNALQSGNSQESVTEQDSKDSTYSLSSTLTLSKADYEKHKVYACEVTHQGLSSPVTKSFNRGEC				28.9	0.000283	9810
SM17-anti IL-33 2# bsBp (bispecific antibody, human IgG4 S228P, kappa, SM17 IgG with an anti-IL-33 scFv fused to the C-terminus of each heavy chain) heavy: not shown light: DIQMTQSPSSLSASVGDRVTITCRASENINSNLAWYQQKPGKAPKLLLYDVTNLADGVPSRFSGSGSGTDYTLTISSLQPEDFATYYCQHFWGPPYTFGGGTKVEIKRTVAAPSVFIFPPSDEQLKSGTASVVCLLNNFYPREAKVQWKVDNALQSGNSQESVTEQDSKDSTYSLSSTLTLSKADYEKHKVYACEVTHQGLSSPVTKSFNRGEC				< 0.0259	< 1e-07	37300
SM17-anti IL-33 3# bsBp (bispecific antibody, human IgG4 S228P, kappa, SM17 IgG with an anti-IL-33 scFv fused to the C-terminus of each heavy chain) heavy: not shown light: DIQMTQSPSSLSASVGDRVTITCRASENINSNLAWYQQKPGKAPKLLLYDVTNLADGVPSRFSGSGSGTDYTLTISSLQPEDFATYYCQHFWGPPYTFGGGTKVEIKRTVAAPSVFIFPPSDEQLKSGTASVVCLLNNFYPREAKVQWKVDNALQSGNSQESVTEQDSKDSTYSLSSTLTLSKADYEKHKVYACEVTHQGLSSPVTKSFNRGEC				≤ 0.0425	< 1e-07	22700

From patent US20240409647A1 (SINOMAB BIOSCIENCE, published 2024)
